# Measured values published in the nanobody polyreactivity screen of Harvey et al. (2022).
# Assay: yeast display, Sf9 membrane polyspecificity reagent, FACS + sequencing; frameworks hold sequencing errors
# Procedure, shortened: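 In a synthetic yeast display library (Saccharomyces cerevisiae BJ5465), nanobody expression was induced with galactose for 36–48 hours. FACS gates were set low and high (top ~1%) using anti-HA fluorescence for expression and streptavidin fluorescence for binding of the Sf9 membrane reagent. Each polyreactivity label is drawn from the gate of origin.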
row,Sequence,polyreactivity (PSR sort gate)
1,QVQLVESGGGLVQAGGSLRLSCAASMGWYRQAPGKERELVAAITTRTGTTYYADSVKGRFTISRDNAKNTVYLQMNSLKPEDTAVYYCSKRGYYRYYYWGQGTQVTVSS,high polyreactivity
2,QVQLVESGGGLVQAGGSLRLSCAASGNIFYSYAMGWYRQAPGNERELVAAISWGGGRTYYADSVKGRFTISRDNAKNTVYLQMNSLKPEDTAVYYCNKVTRGGYDYWGQGTQVTVSS,high polyreactivity
3,QVQLVESGGGLVQARGSLRLSCAASGSIFYNYGMGWYRQAPGKERELVAAIRASGDSTYYADSVKGRFTISRDNAKNTVYLQMNSLKPEDTAVYYCAARPNQSYYGLYYYWGQGTQVTVSS,low polyreactivity
4,QVQLVESGGGLVQAGGSLRLSCAASGRTFTRYAMGWYRQAPGKERELVAAISYIGGRTNYADSVKGRFTISRDNAKNTVYLQMNSLKPEDTAVYYCAASRPWVYYDGLDYWGQGTQVTVSS,high polyreactivity
5,QVQLVESGGGLVQAGGSLRLSCAASGSNFTSNGMGWYRQAPGKERELVAAITRRGGRTYYADSVKGRFTISRDNAKNTVYLQMNSLKPEDTAVYYCAAKSTSLYDYWGQGTQVTVSS,low polyreactivity
6,QVQHEESGGGLVQAGGSLRISCAASGTTFFTYAMGWYRPAPGKEREFVAAISWSDDSTYYADSVKGRFTISRDYAKNTVYLQMNSLKPEDTAVYYCAAEWGQRGGGGYYYWGQGTQVTVSS,low polyreactivity
7,QVPLVESGGGLVQAGGSLRLSCAASGFIFSSNARGWYRQAPGKERELVARITWSDGSTYYADSVKGRFTISRDNAKKTVYLQMNSLKPEDTAVYYCAKGRDATHYEYYLYSMDYWGQGTQVTVSS,low polyreactivity
8,QVQLVESGGGLVQAGGSLRLSCAASGITFSSYAMGWYRQAPGKERELVAGITRRGGITYYADSVKGRFTISRDNAKNTVYLQMNSLNPEDTAVYYCAATHRFRSGSPDGGYGYWGQGTQVTVSS,high polyreactivity
9,QVQLVDSGGGLVQAGGSLRLSCAASGRTFWYYTMGWYRQAPGKEREFVAAIRGSGTSTYYADSVKARFTISRDNEKNTVYLQMNSLKPEDTAVYYCAAESPVYHLVTYDYWGQGTQVTVSS,high polyreactivity
10,QVQLVESGGGLVQAGGSLRLSCAASGFIFFKYAMRWYRQAPGKEREFVAAISKSGTSTYYADSVKGRFTISRDNAKNTVYLQMNSLKPEDTAVYYCAARKDSYYYRSYDSWGQGTQVTVSS,high polyreactivity
11,QVQLVASGGGLVQAGGSLRLSCAASGRTFYEYSIGWYRQAPGKERELDAGITSGGSTNYSDTVKGRFTISRDNATNPVFLLMNRLNPEDTAVYYCAAAYWGYEYDYWGQGTQVTLSS,low polyreactivity
12,QEQLVESGGGLVQAGGSLRLSCAPSGSIMYVYAMGWYRPAPGKERELVAVITSGGSTTYADSVKGRFTMSRDNAKNTVYLQMNSLKPEDTAVYYCAAVPYSVYGGDYWGQGTQVTVSS,low polyreactivity
13,QVQLVESGGGLVQAVGSLRLSCAASGSIFVKYAMGWYRQAPGKERELVAALSRSGGSTYYADSVKGRFTISRDNAKNTVYLQMNSLKPEDTEVYYCAATYYKGMNYWGQGTQVTVSS,high polyreactivity
14,QVQLVESGGGLVQAGGSLRLSCAASGLTLYYNAMGWYRQAPGKERELVAAMSGSGGNTYYADSVKGRFTISRDNAKNTVYLQMNSLKPEDTAVYYCNAYTHSRNPERREYYWGQGTQVTVSS,high polyreactivity
15,QVQRVESGGVLVQAGGSLRLSCAASGGIFYYYTMGWYRQAPGKERELVAAINWSGGSTYYADSVKGRFTISRDNAKNTVYLQMNSLKPEDTAVYYCNAVYRHPVTYGYWGQGTQVTVSS,high polyreactivity
16,QVQLVESGVGLVQAGGSLRLSCAAYGSIFDGYAMGWYRPAPGKEREFVATITVSGGRSYYADSVKGSFTISRDNANNTVYLEMNSLKPEDTAVYYGNVDVFYYPHRYDYWGQGTQVTVSS,high polyreactivity
17,QVQLVETGVGLVQAGGSLRLSCAASGSTFPGYAMGWYRQAPGKERELVAAISASGGSTYYADSVKGRFTISRDIAKNTVYLQMNSLKPEDTEVYYCAKVLSRGASAHDYWGLGTQVTVSS,low polyreactivity
18,QVQLVESGGGLVQAGGSLRLSCAASGITFNPYVMGWYRQAPGTERELVAVITSGGSTNYADSVKGRFTISRDNAKNTVYLQMNSLKPEDTAVYYCNVDRRPYYVWRVTYDYWGQGTQVTVSS,low polyreactivity
19,QVQLVESGEGLVQAGGSLRLSCAASGIFPYNAMGWYRQAPGKEREFVAGISRRGGSTYYADSVKGRFTISRDNAKNTVYLQMNSLKPEDTAVYYCAAGTYHKVVRRWASYYYWGQGTQVTVSS,high polyreactivity
20,QVQLVESGGGLVQAGGSLRVSCAASGFIFSYSAMGWYRQAPGKERELVAAISRSGGRTYYADSVKGRFTISRDNAKNTVYLQMNSLKPEDTAVYYCAAPVSLRPIYDYWGHGTQVTVSS,high polyreactivity
21,QVQLVESGGGLVQAGGSLSLSCAASGRIFGYYAMGGYRQAPGKERELVAAITTGGNTYYAESVKGRFTISRDNAKNTVNLQMNSLKPEDTAVYYCNKRSYAYYSYAVFTWVDYWGQGTQVTVSS,low polyreactivity
22,QVQLVESGGGLVHAGGSLRLSCAASGFIFWRYAMGWYRQAPGKERELVATITSSGGTTHYADSVKGRFTISRDNAKNTVYLQMNSLKPEDTAVFYCATRNGVGSLFYSRNYWGQGTQVSVSS,high polyreactivity

row,Sequence,polyreactivity (PSR sort gate)
1,QHQLVESGGGLVQAGGSLRLSCAASGRTSLDYAMGWYRQAPGKERELVSAIRSGGITNYADSVKGRFTISRDNAKNTVYLQLNSLKPEDTAVYYCAARVHRAYSTGSIVYYWGQGTQVNVSS,high polyreactivity
2,QVQLVESGGGLVQAGGSLRLSCAASGSTFDYYTIGWYRQAPGKERELVAAISSSGGSTYYADSVKGRFTISRDNAKNTVYLQMNSLKPEDTAVYYCAADPSPYGDEYDYWGQGTQVTVSS,low polyreactivity
3,QVQLVESGGGLVQAGGSLRLTCAASGRILVSYSMGWYRQAPGKERELVAAISRSGGSTYYADSVKGRFTISRDNAKNTVYLQMNSLKPEDTAVYYWNVYRFSRYDYWGQGTQVTVSS,high polyreactivity
4,QVQLVESVGGLVQAGGSLRISCAASGSIFAINAMGWYRQAPVKERELVAAIRTAGRTYYADSVKGRFTISRDNAKNTVYLQMNSLKPEDSSVYDCNDGGKWIGSDYWGQGTQVTVSS,high polyreactivity
5,QDQQVESGGGLVQAGGSLRLSCAASGFTFRKKAKGWYRQAPGKERELVAAISASGGSTYYADSVKGRFTISRDNAKNTVYLQMNSLKPEDTDVFYCARDRSNAFNYWGQGTQVTVSS,high polyreactivity
6,QVQLVESGGGLVQAGGSLRLSCAASGFIFTDNVMGWYRQAPGKERELVAAISRRGGSTYYADSVKGRFTISRDNAKNTVYLQMNSLKPEDTAVYYCNVARQSYLLDYWGQGTQVTVSS,high polyreactivity
7,QVQLVESGGGLVQAGGSLRLSCAASGSTFGIYVMGWYRQAPGKERELVADISSSGGSTYYADSVKGRFTISRDNAKNTVYLQMNSLKPEDTAVYYCNAYHWDGDGVFYEYDYWGQGTQVTVSS,high polyreactivity
8,QVQLVESGGGLVQAGGSLRLSCAASGSTFYYYAIGWYRQAPGKERELVAALSKSGGSTYYADSVKGRFTISRDNAKNTVYLQMNSLNTEDTAVYYCSARWYRFQGYGRPYRGIGGDYWGQGTQVTVSS,high polyreactivity
9,QVQLVESGGCLVQAGGSLRLRCAASGSTFDDNVKGWYRPAPRKDRELVAAISSSGGSTYYADSVKGRFTISRDNAKNTVYLQMNSLKPEDTAVYYCNAVYFGLWGYYSRRSYNYWGQGTQVNVSS,low polyreactivity
10,QVQLVESGRGLLQAGGSLPLSCAASGRIFAYNTMGWYRQAPGKERELVAAISWRGGSTYYADSVKGRFTISRDNAKKTVYFQMNSLKPEDTAVYYCSVLYSSFTRFDYWGQGSQVTVSS,high polyreactivity
11,QVQLVESGGGLVQAGGSLRLSCAASGFNLKWYAMGWYRQAPGKERELVAAINDRGGNTYYADSVKGRFTISRDNAKNTVYLQMNSLKPEDTAVYYCAVRGKTYRPYYYWGQGTQVTVSS,high polyreactivity
12,QVQLVESGGGLVQAGGSLRLSCAASGSTFPPNAMGWYRQAPGKERELVAVISYSDGSTYYADSVKGRFTISRDNAKNTVYLQMNSLKPEDTAVYYCAAYSGYGGVSMYYWGQGTQVTGSS,low polyreactivity
13,QVQLVESGGGLVQAGGSLRLSCAASGFTFEGNAMGWYRQAPGKERELVAAISSNGGRTYYADSVKGRFTISRDNAKNTVYLQMNSLKPEDTAVYYCNALRAYSGPDYDYYHGRRYDYWGQGTQVTVSS,low polyreactivity
14,QVQHVESGGGLVQAGGSLRLSCAASGSIFRYYVMGWYSQAPGKERELGAAISSGGRTYYADSVKGRFTISRDNAKNTVYLQMNSLKPEDTAVYYCNAQGLFYWEMDYWGQGTQVTVSS,high polyreactivity
15,QVQLVESGGGLVQAGGSLRLSCAASGFIFRRNAMGWYRPAPGKERELVAAITKSGGSTYYADSVKGRFTISRDNAKNTVYLQMNSLKPEDTAVYYCAAPYSAKELYYRMDYWGQGTQVTVSS,high polyreactivity
16,QVQLVESGGGLVQAGGSLRLSCAASGRIFAFYALGWYIQAPGKERELVAAISWSDDITYYADSVKGRFTISRDNAKNTVYSQMNSLKPEDTAVYYCAYRRRGYAFSSDYWGQGTQVTVSS,high polyreactivity
17,QVNLVESGGGLVQAGCSLRITCADSGRTFKHNAMGWYRQAPGKERQLVAAISRRGGSTYFADSVKGRFTISRDNAKNTVYLQMNRLKPDDTAVYYCNAGYSTFLQYYGEVWKKGCYWGQGTQVTVSS,high polyreactivity
18,QVQLVESGGGLVQAGGSLRLSCAASGRTFTVYAMGWYRQAPGKERELVAAISSGGITYYADSVKGRFTISRDNAKNTVYLQMNSLKPEDTAVYYCNTKSGKARYVFGYWGQGTQVTVSS,low polyreactivity
19,QVQLVESGGGLVQAGGSLRLSCAASGRTFRYNTMGWYRPAPGKERELVAAISSGGGRTYYADSVKGRFTISRDNAKNTVYLQMNSLIPEDTAVYYCAADRYFRSRRSYEYWGQGTQVTVSS,low polyreactivity
20,QVQLVESGGGLVQAGGSLRLSCAACGFTFRYNAMGWYRQAPGKERELVAAITRGGGNTYYADSVKGRFTISRDHAKNTVYLQMNSLKPEDTAVYYCAAYSNGGRYDYGYWGQGTQVTVSS,high polyreactivity
21,QVQLVESGGGLVQAGGSLRLSCAASGITFYRYDMVWYRQAPGKERELVAAISRSGGSTYYADSVKGRFTISRDNAKNTVYLQMNSLKPEDSAVYYCAAYILGNRDGYDYWGQGTQVTVSS,high polyreactivity
